# Reference: ChEMBL document CHEMBL1143427, “Interactions of ceftobiprole with beta-lactamases from molecular classes A to D” (Antimicrob Agents Chemother, 2007)
# B1: Beta-lactamase (Pseudomonas aeruginosa (strain ATCC 15692 / PAO1 / 1C / PRS 101 / LMG12228)), P24735 (protein)
# chain: MRDTRFPCLCGIAASTLLFATTPAIAGEAPADRLKALVDAAVQPVMKANDIPGLAVAISLKGEPHYFSYGLASKEDGRRVTPETLFEIGSVSKTFTATLAGYALTQDKMRLDDRASQHWPALQGSRFDGISLLDLATYTAGGLPLQFPDSVQKDQAQIRDYYRQWQPTYAPGSQRLYSNPSIGLFGYLAARSLGQPFERLMEQQVFPALGLEQTHLDVPEAALAQYAQGYGKDDRPLRVGPGPLDAEGYGVKTSAADLLRFVDANLHPERLDRPWAQALDATHRGYYKVGDMTQGLGWEAYDWPISLKRLQAGNSTPMALQPHRIARLPAPQALEGQRLLNKTGSTNGFGAYVAFVPGRDLGLVILANRNYPNAERVKIAYAILSGLEQQGKVPLKR
# Assays:
# [1] = substrate: O=C(Cc1cccs1)N[C@@H]1C(=O)N2C(C(=O)[O-])=C(C[n+]3ccccc3)CS[C@H]12; assay: (§1) Activity of Pseudomonas aeruginosa 4352 AmpC assessed as drug hydrolysis by spectrophotometry
# [2] = substrate: CC(C)(O/N=C(\C(=O)N[C@@H]1C(=O)N2C(C(=O)[O-])=C(C[n+]3ccccc3)CS[C@H]12)c1csc(N)n1)C(=O)O; assay: as §1
# [3] = substrate: CO/N=C(\C(=O)N[C@@H]1C(=O)N2C(C(=O)[O-])=C(C[N+]3(C)CCCC3)CS[C@H]12)c1csc(N)n1; assay: as §1
# [4] = substrate: Nc1nc(/C(=N/O)C(=O)N[C@@H]2C(=O)N3C(C(=O)O)=C(/C=C4\CCN([C@@H]5CCNC5)C4=O)CS[C@H]23)ns1; assay: as §1
# [5] = substrate: O=C(Cc1cccs1)N[C@@H]1C(=O)N2C(C(=O)O)=C(/C=C/c3ccc([N+](=O)[O-])cc3[N+](=O)[O-])CS[C@H]12; assay: as §1
# [6] = substrate: CC1(C)S[C@@H]2[C@H](NC(=O)Cc3ccccc3)C(=O)N2[C@H]1C(=O)O; assay: as §1
# [7] = substrate: O=C(Cc1cccs1)N[C@@H]1C(=O)N2C(C(=O)[O-])=C(C[n+]3ccccc3)CS[C@H]12; assay: (§2) Ratio of Kcat to Km of Pseudomonas aeruginosa 18SH AmpC assessed as drug hydrolysis by spectrophotometry
# [8] = substrate: CO/N=C(\C(=O)N[C@@H]1C(=O)N2C(C(=O)[O-])=C(C[N+]3(C)CCCC3)CS[C@H]12)c1csc(N)n1; assay: as §2
# [9] = substrate: Nc1nc(/C(=N/O)C(=O)N[C@@H]2C(=O)N3C(C(=O)O)=C(/C=C4\CCN([C@@H]5CCNC5)C4=O)CS[C@H]23)ns1; assay: as §2
# [10] = substrate: CC1(C)S[C@@H]2[C@H](NC(=O)Cc3ccccc3)C(=O)N2[C@H]1C(=O)O; assay: as §2
# [11] = substrate: O=C(Cc1cccs1)N[C@@H]1C(=O)N2C(C(=O)[O-])=C(C[n+]3ccccc3)CS[C@H]12; assay: (§3) Activity of Pseudomonas aeruginosa AmpC assessed as drug hydrolysis by spectrophotometry
# [12] = substrate: CC(C)(O/N=C(\C(=O)N[C@@H]1C(=O)N2C(C(=O)[O-])=C(C[n+]3ccccc3)CS[C@H]12)c1csc(N)n1)C(=O)O; assay: as §3
# [13] = substrate: CO/N=C(\C(=O)N[C@@H]1C(=O)N2C(C(=O)[O-])=C(C[N+]3(C)CCCC3)CS[C@H]12)c1csc(N)n1; assay: as §3
# [14] = substrate: Nc1nc(/C(=N/O)C(=O)N[C@@H]2C(=O)N3C(C(=O)O)=C(/C=C4\CCN([C@@H]5CCNC5)C4=O)CS[C@H]23)ns1; assay: as §3
# [15] = substrate: CC1(C)S[C@@H]2[C@H](NC(=O)Cc3ccccc3)C(=O)N2[C@H]1C(=O)O; assay: as §3
# [16] = substrate: O=C(Cc1cccs1)N[C@@H]1C(=O)N2C(C(=O)[O-])=C(C[n+]3ccccc3)CS[C@H]12; assay: (§4) Ratio of Kcat to Km of Pseudomonas aeruginosa 4352 AmpC assessed as drug hydrolysis by spectrophotometry
# [17] = substrate: CC(C)(O/N=C(\C(=O)N[C@@H]1C(=O)N2C(C(=O)[O-])=C(C[n+]3ccccc3)CS[C@H]12)c1csc(N)n1)C(=O)O; assay: as §4
# [18] = substrate: CO/N=C(\C(=O)N[C@@H]1C(=O)N2C(C(=O)[O-])=C(C[N+]3(C)CCCC3)CS[C@H]12)c1csc(N)n1; assay: as §4
# [19] = substrate: Nc1nc(/C(=N/O)C(=O)N[C@@H]2C(=O)N3C(C(=O)O)=C(/C=C4\CCN([C@@H]5CCNC5)C4=O)CS[C@H]23)ns1; assay: as §4
# [20] = substrate: O=C(Cc1cccs1)N[C@@H]1C(=O)N2C(C(=O)O)=C(/C=C/c3ccc([N+](=O)[O-])cc3[N+](=O)[O-])CS[C@H]12; assay: as §4
# [21] = substrate: CC1(C)S[C@@H]2[C@H](NC(=O)Cc3ccccc3)C(=O)N2[C@H]1C(=O)O; assay: as §4
# [22] = substrate: O=C(Cc1cccs1)N[C@@H]1C(=O)N2C(C(=O)[O-])=C(C[n+]3ccccc3)CS[C@H]12; assay: (§5) Ratio of Kcat to Km of Pseudomonas aeruginosa MK-1184 AmpC assessed as drug hydrolysis by spectrophotometry
# [23] = substrate: CC(C)(O/N=C(\C(=O)N[C@@H]1C(=O)N2C(C(=O)[O-])=C(C[n+]3ccccc3)CS[C@H]12)c1csc(N)n1)C(=O)O; assay: as §5
# [24] = substrate: CO/N=C(\C(=O)N[C@@H]1C(=O)N2C(C(=O)[O-])=C(C[N+]3(C)CCCC3)CS[C@H]12)c1csc(N)n1; assay: as §5
# [25] = substrate: Nc1nc(/C(=N/O)C(=O)N[C@@H]2C(=O)N3C(C(=O)O)=C(/C=C4\CCN([C@@H]5CCNC5)C4=O)CS[C@H]23)ns1; assay: as §5
# [26] = substrate: CC1(C)S[C@@H]2[C@H](NC(=O)Cc3ccccc3)C(=O)N2[C@H]1C(=O)O; assay: as §5
# [27] = substrate: O=C(Cc1cccs1)N[C@@H]1C(=O)N2C(C(=O)[O-])=C(C[n+]3ccccc3)CS[C@H]12; assay: (§6) Activity of Pseudomonas aeruginosa 18SH AmpC assessed as drug hydrolysis by spectrophotometry
# [28] = substrate: CC(C)(O/N=C(\C(=O)N[C@@H]1C(=O)N2C(C(=O)[O-])=C(C[n+]3ccccc3)CS[C@H]12)c1csc(N)n1)C(=O)O; assay: as §6
# [29] = substrate: CO/N=C(\C(=O)N[C@@H]1C(=O)N2C(C(=O)[O-])=C(C[N+]3(C)CCCC3)CS[C@H]12)c1csc(N)n1; assay: as §6
# [30] = substrate: Nc1nc(/C(=N/O)C(=O)N[C@@H]2C(=O)N3C(C(=O)O)=C(/C=C4\CCN([C@@H]5CCNC5)C4=O)CS[C@H]23)ns1; assay: as §6
# [31] = substrate: CC1(C)S[C@@H]2[C@H](NC(=O)Cc3ccccc3)C(=O)N2[C@H]1C(=O)O; assay: as §6
# [32] = substrate: O=C(Cc1cccs1)N[C@@H]1C(=O)N2C(C(=O)[O-])=C(C[n+]3ccccc3)CS[C@H]12; assay: (§7) Ratio of Kcat to Km of Pseudomonas aeruginosa AmpC assessed as drug hydrolysis by spectrophotometry
# [33] = substrate: CO/N=C(\C(=O)N[C@@H]1C(=O)N2C(C(=O)[O-])=C(C[N+]3(C)CCCC3)CS[C@H]12)c1csc(N)n1; assay: as §7
# [34] = substrate: Nc1nc(/C(=N/O)C(=O)N[C@@H]2C(=O)N3C(C(=O)O)=C(/C=C4\CCN([C@@H]5CCNC5)C4=O)CS[C@H]23)ns1; assay: as §7
# [35] = substrate: CC1(C)S[C@@H]2[C@H](NC(=O)Cc3ccccc3)C(=O)N2[C@H]1C(=O)O; assay: as §7
# [36] = substrate: O=C(Cc1cccs1)N[C@@H]1C(=O)N2C(C(=O)[O-])=C(C[n+]3ccccc3)CS[C@H]12; assay: (§8) Activity of Pseudomonas aeruginosa MK-1184 AmpC assessed as drug hydrolysis by spectrophotometry
# [37] = substrate: CC(C)(O/N=C(\C(=O)N[C@@H]1C(=O)N2C(C(=O)[O-])=C(C[n+]3ccccc3)CS[C@H]12)c1csc(N)n1)C(=O)O; assay: as §8
# [38] = substrate: CO/N=C(\C(=O)N[C@@H]1C(=O)N2C(C(=O)[O-])=C(C[N+]3(C)CCCC3)CS[C@H]12)c1csc(N)n1; assay: as §8
# [39] = substrate: Nc1nc(/C(=N/O)C(=O)N[C@@H]2C(=O)N3C(C(=O)O)=C(/C=C4\CCN([C@@H]5CCNC5)C4=O)CS[C@H]23)ns1; assay: as §8
# [40] = substrate: CC1(C)S[C@@H]2[C@H](NC(=O)Cc3ccccc3)C(=O)N2[C@H]1C(=O)O; assay: as §8
protein,measurement,setting,value
B1,Km,[1],320 µM
same,kcat,[1],100 s⁻¹
same,Km,[2],8 µM
same,kcat,[2],< 0.01 s⁻¹
same,Km,[3],370 µM
same,kcat,[3],< 0.012 s⁻¹
same,Km,[4],55 µM
same,kcat,[4],< 0.024 s⁻¹
same,Km,[5],12 µM
same,kcat,[5],68 s⁻¹
same,Km,[6],11 µM
same,kcat,[6],37 s⁻¹
same,kcat/Km,[7],1.8e+06 M⁻¹ s⁻¹
same,kcat/Km,[8],9000 M⁻¹ s⁻¹
same,kcat/Km,[9],13000 M⁻¹ s⁻¹
same,kcat/Km,[10],1.1e+06 M⁻¹ s⁻¹
same,Km,[11],200 µM
same,kcat,[11],16 s⁻¹
same,kcat,[12],< 0.0095 s⁻¹
same,Km,[13],230 µM
same,kcat,[13],3.1 s⁻¹
same,Km,[14],29 µM
same,kcat,[14],230 s⁻¹
same,Km,[15],7.9 µM
same,kcat,[15],86 s⁻¹
same,kcat/Km,[16],310000 M⁻¹ s⁻¹
same,kcat/Km,[17],< 1300 M⁻¹ s⁻¹
same,kcat/Km,[18],< 33 M⁻¹ s⁻¹
same,kcat/Km,[19],< 440 M⁻¹ s⁻¹
same,kcat/Km,[20],5.7e+06 M⁻¹ s⁻¹
same,kcat/Km,[21],3.4e+06 M⁻¹ s⁻¹
same,kcat/Km,[22],1.1e+06 M⁻¹ s⁻¹
same,kcat/Km,[23],58000 M⁻¹ s⁻¹
same,kcat/Km,[24],8600 M⁻¹ s⁻¹
same,kcat/Km,[25],11000 M⁻¹ s⁻¹
same,kcat/Km,[26],6.7e+06 M⁻¹ s⁻¹
same,Km,[27],71 µM
same,kcat,[27],130 s⁻¹
same,Km,[28],20 µM
same,kcat,[28],< 0.1 s⁻¹
same,Km,[29],210 µM
same,kcat,[29],< 0.1 s⁻¹
same,Km,[30],280 µM
same,kcat,[30],3.6 s⁻¹
same,Km,[31],40 µM
same,kcat,[31],45 s⁻¹
same,kcat/Km,[32],80000 M⁻¹ s⁻¹
same,kcat/Km,[33],1300 M⁻¹ s⁻¹
same,kcat/Km,[34],7.9e+06 M⁻¹ s⁻¹
same,kcat/Km,[35],1.1e+07 M⁻¹ s⁻¹
same,Km,[36],21 µM
same,kcat,[36],22 s⁻¹
same,Km,[37],12 µM
same,kcat,[37],0.69 s⁻¹
same,Km,[38],38 µM
same,kcat,[38],0.33 s⁻¹
same,Km,[39],42 µM
same,kcat,[39],0.45 s⁻¹
same,Km,[40],3 µM
same,kcat,[40],20 s⁻¹
